Measurements as given in the Immune Epitope Database (IEDB).

Tests used:
[1] = target: HLA-A*24:02; assay: IEDB peptide-MHC binding, purified MHC/competitive/fluorescence; ≥ and ≤ were set here for values at or beyond the usual limits of such assays
[2] = target: HLA-B*07:02; assay: as above
[3] = target: HLA-A*02:01; assay: IEDB peptide-MHC binding, purified MHC/competitive/fluorescence; filed as Kd, often an IC50 or EC50 that approximates it; ≥ and ≤ were set here for values at or beyond the usual limits of such assays
[4] = target: HLA-B*08:02; assay: IEDB peptide-MHC binding, purified MHC/direct/fluorescence; filed as Kd, often an IC50 or EC50 that approximates it; ≥ and ≤ were set here for values at or beyond the usual limits of such assays
[5] = target: HLA-B*08:01; assay: as above
[6] = target: HLA-B*27:05; assay: as above; details: source organism: West Nile virus
[7] = target: HLA-A*31:01; assay: as above; details: source organism: West Nile virus
[8] = target: HLA-A*29:02; assay: as above
[9] = target: HLA-A*03:01; assay: as above
[10] = target: HLA-B*51:01; assay: as above; details: source organism: West Nile virus
[11] = target: HLA-A*11:01; assay: as above; details: source organism: West Nile virus
[12] = target: HLA-B*46:01; assay: as above; details: source organism: West Nile virus
[13] = target: HLA-B*40:01; assay: as above; details: source organism: West Nile virus
[14] = target: HLA-A*02:01; assay: as above; details: source organism: West Nile virus
[15] = target: HLA-A*69:01; assay: as above; details: source organism: West Nile virus
[16] = target: HLA-B*44:02; assay: as above; details: source organism: West Nile virus
[17] = target: HLA-B*18:01; assay: as above; details: source organism: West Nile virus
[18] = target: HLA-B*15:01; assay: as above; details: source organism: West Nile virus
[19] = target: HLA-A*01:01; assay: as above; details: source organism: West Nile virus
[20] = target: HLA-B*58:01; assay: as above; details: source organism: West Nile virus
[21] = target: HLA-A*03:01; assay: IEDB peptide-MHC binding, purified MHC/competitive/fluorescence; ≥ and ≤ were set here for values at or beyond the usual limits of such assays; details: source organism: Vaccinia virus Copenhagen
[22] = target: HLA-A*11:01; assay: as above; details: source organism: Vaccinia virus Copenhagen
[23] = target: HLA-B*39:01; assay: IEDB peptide-MHC binding, purified MHC/competitive/fluorescence; filed as Kd, often an IC50 or EC50 that approximates it; ≥ and ≤ were set here for values at or beyond the usual limits of such assays; details: source organism: Zaire ebolavirus
[24] = target: HLA-B*51:01; assay: as above; details: source organism: Zaire ebolavirus
[25] = target: HLA-B*46:01; assay: as above; details: source organism: Zaire ebolavirus
[26] = target: HLA-A*26:01; assay: as above; details: source organism: Zaire ebolavirus
[27] = target: HLA-A*69:01; assay: as above; details: source organism: Zaire ebolavirus
[28] = target: HLA-B*57:01; assay: as above; details: source organism: Zaire ebolavirus
[29] = target: HLA-B*27:03; assay: as above; details: source organism: Zaire ebolavirus
[30] = target: HLA-B*15:17; assay: as above; details: source organism: Zaire ebolavirus
[31] = target: HLA-B*18:01; assay: as above; details: source organism: Zaire ebolavirus
[32] = target: HLA-B*15:01; assay: as above; details: source organism: Zaire ebolavirus
[33] = target: HLA-A*24:03; assay: IEDB peptide-MHC binding, purified MHC/direct/fluorescence; filed as Kd, often an IC50 or EC50 that approximates it; ≥ and ≤ were set here for values at or beyond the usual limits of such assays
[34] = target: HLA-A*68:02; assay: as above
[35] = target: HLA-A*02:16; assay: as above
[36] = target: HLA-A*02:19; assay: as above
[37] = target: HLA-A*02:03; assay: as above
[38] = target: HLA-A*02:12; assay: as above
[39] = target: HLA-A*02:11; assay: as above
[40] = target: HLA-A*02:01; assay: IEDB peptide-MHC binding, purified MHC/competitive/fluorescence; ≥ and ≤ were set here for values at or beyond the usual limits of such assays
[41] = target: HLA-B*15:01; assay: as above
[42] = target: HLA-A*23:01; assay: IEDB peptide-MHC binding, purified MHC/direct/fluorescence; filed as Kd, often an IC50 or EC50 that approximates it; ≥ and ≤ were set here for values at or beyond the usual limits of such assays; details: source organism: Entamoeba histolytica HM-1:IMSS
[43] = source organism: Zaire ebolavirus
[44] = source organism: Giardia lamblia ATCC 50803
[45] = source organism: West Nile virus
[46] = source organism: Vaccinia virus Copenhagen
[47] = source organism: Sudan ebolavirus
[48] = source organism: Ebola virus Yambio0403

## AAPDGIRGF
[1]; [43]
  IC50: 69.8 µM
[2]; [43]
  IC50: 12.2 µM

## ELRKRNEAL
[3]; [44]
  Kd: ≥ 20 µM
[4]; [44]
  Kd: 2.82 µM
[5]; [44]
  Kd: 0.042 µM

## GPRGALSLL
[2]; source organism: Homo sapiens
  IC50: 0.166 µM

## HSRRSRRSL
[6]
  Kd: ≥ 20 µM
[7]
  Kd: ≥ 20 µM
[8]; [45]
  Kd: ≥ 20 µM
[9]; [45]
  Kd: ≥ 20 µM
[10]
  Kd: ≥ 20 µM
[11]
  Kd: ≥ 20 µM
[4]; source organism: West Nile virus strain PTRoxo
  Kd: 5.67 µM
[12]
  Kd: ≥ 20 µM
[13]
  Kd: ≥ 20 µM
[14]
  Kd: ≥ 20 µM
[15]
  Kd: ≥ 20 µM
[16]
  Kd: ≥ 20 µM
[17]
  Kd: ≥ 20 µM
[18]
  Kd: ≥ 20 µM
[5]; [45]
  Kd: 0.211 µM
[19]
  Kd: ≥ 20 µM
[20]
  Kd: ≥ 20 µM

## IPYFGPAAE
[2]; [43]
  IC50: ≥ 135 µM

## KITFALKKL
[21]
  IC50: 11.3 µM
[1]; [46]
  IC50: 34.8 µM
[22]
  IC50: 19.3 µM
[2]; [46]
  IC50: 61.2 µM

## KPGPDNSTH
[2]; [43]
  IC50: ≥ 191 µM

## LPKTSGHYD
[2]; [43]
  IC50: ≥ 182 µM

## MLKRRGFHL
[4]; source organism: Salmonella enterica subsp. enterica serovar Typhi str. CT18
  Kd: 0.102 µM

## NYNGLLSSI
[23]
  Kd: ≥ 20 µM
[24]
  Kd: ≥ 20 µM
[25]
  Kd: ≥ 20 µM
[26]
  Kd: ≥ 20 µM
[3]; [43]
  Kd: ≥ 20 µM
[27]
  Kd: ≥ 20 µM
[28]
  Kd: ≥ 20 µM
[29]
  Kd: ≥ 20 µM
[30]
  Kd: ≥ 20 µM
[31]
  Kd: ≥ 20 µM
[32]
  Kd: ≥ 20 µM
[33]; source organism: Ebola virus - Gabon (1994-1997)
  Kd: 0.0003 µM
[9]; [43]
  Kd: ≥ 20 µM
[34]; [43]
  Kd: ≥ 20 µM
[35]; [43]
  Kd: ≥ 20 µM
[36]; [43]
  Kd: ≥ 20 µM
[37]; [43]
  Kd: ≥ 20 µM
[38]; [43]
  Kd: ≥ 20 µM
[39]; [43]
  Kd: ≥ 20 µM

## QFLSFASLF
[1]; [43]
  IC50: 0.0128 µM
[40]; [43]
  IC50: ≥ 88.1 µM
[41]; [43]
  IC50: 9.93 µM
[23]
  Kd: ≥ 20 µM
[24]
  Kd: ≥ 20 µM
[25]
  Kd: ≥ 20 µM
[26]
  Kd: ≥ 20 µM
[3]; [43]
  Kd: ≥ 20 µM
[27]
  Kd: ≥ 20 µM
[28]
  Kd: ≥ 20 µM
[29]
  Kd: ≥ 20 µM
[30]
  Kd: ≥ 20 µM
[31]
  Kd: ≥ 20 µM
[33]; source organism: Reston ebolavirus
  Kd: 0.0027 µM
[9]; [43]
  Kd: ≥ 20 µM
[34]; [43]
  Kd: ≥ 20 µM
[35]; [43]
  Kd: ≥ 20 µM
[36]; [43]
  Kd: ≥ 20 µM
[37]; [43]
  Kd: ≥ 20 µM
[38]; [43]
  Kd: ≥ 20 µM
[39]; [43]
  Kd: ≥ 20 µM

## QLKSVGLNL
[1]; [47]
  IC50: 24.5 µM
[40]; [47]
  IC50: 7.56 µM
[41]; [47]
  IC50: 14.4 µM
[2]; [47]
  IC50: 6.4 µM

## QYIHLLCNK
[33]; source organism: Entamoeba histolytica HM-1:IMSS
  Kd: 1.11 µM
[42]
  Kd: 0.2 µM

## RYEFTAPFI
[23]
  Kd: ≥ 20 µM
[24]
  Kd: ≥ 20 µM
[25]
  Kd: ≥ 20 µM
[26]
  Kd: ≥ 20 µM
[3]; [43]
  Kd: ≥ 20 µM
[27]
  Kd: ≥ 20 µM
[28]
  Kd: ≥ 20 µM
[29]
  Kd: ≥ 20 µM
[30]
  Kd: ≥ 20 µM
[31]
  Kd: ≥ 20 µM
[32]
  Kd: ≥ 20 µM
[33]; [43]
  Kd: 0.0002 µM
[8]; [48]
  Kd: ≥ 20 µM
[9]; [48]
  Kd: ≥ 20 µM
[34]; [48]
  Kd: ≥ 20 µM
[35]; [48]
  Kd: ≥ 20 µM
[36]; [48]
  Kd: ≥ 20 µM
[37]; [48]
  Kd: ≥ 20 µM
[38]; [48]
  Kd: ≥ 20 µM
[39]; [48]
  Kd: ≥ 20 µM

## TPTVAPPAP
[2]; [43]
  IC50: ≥ 145 µM
